From publication PMC4159615 (Developmental cell, 2014) come the findings set out here.

Substitutions are numbered along the chain they refer to. Names and notes keep the numbering of the source.

For series [1], the target named is T1, Bch1 (S. cerevisiae (yeast), UniProt Q05029 1-724).
T1 sequence: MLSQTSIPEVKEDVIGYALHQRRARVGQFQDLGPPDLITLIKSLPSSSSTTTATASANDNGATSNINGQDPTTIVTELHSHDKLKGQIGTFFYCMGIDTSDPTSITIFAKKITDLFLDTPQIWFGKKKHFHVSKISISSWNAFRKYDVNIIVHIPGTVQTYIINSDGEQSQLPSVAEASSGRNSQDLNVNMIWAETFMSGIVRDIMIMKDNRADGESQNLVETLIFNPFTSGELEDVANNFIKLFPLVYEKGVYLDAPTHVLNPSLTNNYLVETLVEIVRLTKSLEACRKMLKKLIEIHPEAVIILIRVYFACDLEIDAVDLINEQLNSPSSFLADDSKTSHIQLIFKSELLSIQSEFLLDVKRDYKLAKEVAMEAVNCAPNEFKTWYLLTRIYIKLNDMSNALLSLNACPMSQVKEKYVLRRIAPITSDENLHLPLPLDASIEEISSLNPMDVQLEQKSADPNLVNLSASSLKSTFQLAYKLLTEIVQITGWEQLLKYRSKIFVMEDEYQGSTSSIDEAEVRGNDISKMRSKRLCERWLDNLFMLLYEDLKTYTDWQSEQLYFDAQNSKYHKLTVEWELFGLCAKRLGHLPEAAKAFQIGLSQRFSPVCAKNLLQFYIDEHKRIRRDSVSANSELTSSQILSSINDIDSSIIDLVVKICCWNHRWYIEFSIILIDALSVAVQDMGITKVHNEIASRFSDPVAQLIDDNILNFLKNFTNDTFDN
The experiment in a line: crystal structure.

Series [2] deals with the molecule itself. The experiment in a line: crystal structure.
For series [3], the target named is T2, Chs5(1-299)/Bch1 exomer complex (S. cerevisiae (yeast), UniProt Q12114 1-299; Q05029 1-724).
T2 sequence 1: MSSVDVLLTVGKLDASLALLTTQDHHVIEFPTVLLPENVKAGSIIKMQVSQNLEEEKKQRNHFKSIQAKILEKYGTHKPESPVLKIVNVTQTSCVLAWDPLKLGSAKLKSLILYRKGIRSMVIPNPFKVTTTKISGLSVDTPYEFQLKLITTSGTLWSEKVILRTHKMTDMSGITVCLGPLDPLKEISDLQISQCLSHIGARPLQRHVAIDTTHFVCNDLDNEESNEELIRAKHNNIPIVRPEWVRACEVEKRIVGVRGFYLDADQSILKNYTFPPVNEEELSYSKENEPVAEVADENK
T2 sequence 2: T1 sequence
The experiment in a line: crystal structure.

For series [4], the target named is T3, Chs5(1-299)-T92Y/Bch1-N692I exomer complex (S. cerevisiae (yeast), UniProt Q12114 1-299; Q05029 1-724, T92Y | N692I).
T3 sequence 1: T2 sequence 1 with T92Y
T3 sequence 2: T1 sequence with N692I
The experiment in a line: co-sedimentation.

Series [5] deals with T4, Chs5(1-299)/Chs6 exomer complex (S. cerevisiae (yeast), UniProt Q12114 1-299; P40955 1-746).
T4 sequence (looked up) 1: T2 sequence 1
T4 sequence (looked up) 2: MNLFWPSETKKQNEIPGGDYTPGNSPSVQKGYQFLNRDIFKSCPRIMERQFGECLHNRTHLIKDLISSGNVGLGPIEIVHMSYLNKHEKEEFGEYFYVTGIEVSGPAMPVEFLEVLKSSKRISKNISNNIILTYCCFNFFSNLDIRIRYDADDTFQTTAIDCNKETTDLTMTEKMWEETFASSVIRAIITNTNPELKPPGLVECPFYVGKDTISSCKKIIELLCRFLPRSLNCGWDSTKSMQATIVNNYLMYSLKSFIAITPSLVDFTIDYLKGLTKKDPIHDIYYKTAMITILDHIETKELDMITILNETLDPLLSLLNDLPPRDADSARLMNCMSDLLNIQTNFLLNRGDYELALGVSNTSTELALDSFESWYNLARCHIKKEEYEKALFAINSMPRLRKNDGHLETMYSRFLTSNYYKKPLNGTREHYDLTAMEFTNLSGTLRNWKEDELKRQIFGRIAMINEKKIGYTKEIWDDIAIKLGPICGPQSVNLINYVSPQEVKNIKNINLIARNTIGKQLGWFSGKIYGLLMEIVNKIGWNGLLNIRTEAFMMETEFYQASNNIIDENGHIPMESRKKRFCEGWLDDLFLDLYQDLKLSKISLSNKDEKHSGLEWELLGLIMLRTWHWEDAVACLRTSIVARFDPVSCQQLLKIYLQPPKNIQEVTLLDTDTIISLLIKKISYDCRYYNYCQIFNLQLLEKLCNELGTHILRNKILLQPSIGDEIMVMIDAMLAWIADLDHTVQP
Briefly: co-sedimentation.

In series [6] the target is T5, Chs5(1-299)/Bch1-N692I exomer complex (S. cerevisiae (yeast), UniProt Q12114 1-299; Q05029 1-724, N692I).
T5 sequence 1: T2 sequence 1
T5 sequence 2: T1 sequence with N692I
The experiment in a line: co-sedimentation.

For series [7], the target named is T6, Chs5(1-299)-T92Y/Bch1 exomer complex (S. cerevisiae (yeast), UniProt Q12114 1-299; Q05029 1-724, T92Y).
T6 sequence 1: T2 sequence 1 with T92Y
T6 sequence 2: T1 sequence
The experiment in a line: co-sedimentation.

Series [8] addresses T2, Chs5(1-299)/Bch1 exomer complex. Briefly: co-sedimentation.

B1: Chs5 (residues 1-299) (domain or fragment, S. cerevisiae (yeast), UniProt Q12114 1-299, looked up)
chain: T2 sequence 1
Regarding B1, the binding result in series [1] and in series [2] was “binds” each time.

B2: ΔN17-Arf1-Q71L bound to GMPPNP (domain or fragment, S. cerevisiae (yeast), UniProt P11076 18-181, looked up)
chain: MRILMVGLDGAGKTTVLYKLKLGEVITTIPTIGFNVETVQYKNISFTVWDVGGLDRIRSLWRHYYRNTEGVIFVVDSNDRSRIGEAREVMQRMLNEDELRNAAWLVFANKQDLPEAMSAAEITEKLGLHSIRNRPWFIQATCATSGEGLYEGLEWLSNSLKNST
For the molecule B2, the binding result in series [1] is on record as “binds”. In series [3], the stoichiometry N (usually the number of molecules, sites or subunits per partner or assembly) came out at 2.

B3: myristoylated Arf1 (wild type), GTP-bound, anchored on liposomes (natural protein, yeast, UniProt P11076 1-181, looked up)
chain: MGLFASKLFSNLFGNKEMRILMVGLDGAGKTTVLYKLKLGEVITTIPTIGFNVETVQYKNISFTVWDVGGQDRIRSLWRHYYRNTEGVIFVVDSNDRSRIGEAREVMQRMLNEDELRNAAWLVFANKQDLPEAMSAAEITEKLGLHSIRNRPWFIQATCATSGEGLYEGLEWLSNSLKNST
modifications: myristoylated
As to B3, the binding result in series [4], in series [5], in series [6], in series [7] and in series [8] was “binds” throughout.

B4: myristoylated Arf1-S98Y (natural protein, yeast, UniProt P11076 1-181, looked up)
chain: B3 chain with S98Y
modifications: myristoylated
For B4, in series [8], the binding result is listed as “binds”.
